From US20240360246A1 (BIO Y A S, published 2024) come the findings set out here.

Experiment [1] concerns the target T1, Human YKL-40 also known as Chitinase-3-like protein 1 (CHI3L1) (human, UniProt P36222 22-383).
T1 construct: Secreted protein purified from MG63 supernatant or purchased (Catalogue #2599-CH); also called hYKL-40
The experiment is described as follows: dot blot. How it is done:
A dot blot was performed by adding 0.4 μg and 0.2 μg of hYKL-40, 0.4 μg and 0.2 μg mYKL-40, 0.4 μg and 0.2 μg of calmodulin (negative control) and PBS (negative control) onto the nitrocellulose membrane. The membrane was incubated with B3 (SEQ ID NO: 3)-hFc.
A dot blot was performed by adding 0.4 μg and 0.2 μg of hYKL-40, 0.4 μg and 0.2 μg mYKL-40, 0.4 μg and 0.2 μg of calmodulin (negative control) and PBS (negative control) onto the nitrocellulose membrane. The area that the solution penetrates was minimized. The membrane was dried for 1 h at room temperature (RT). Afterwards the membrane was blocked in PBS with 0.1% Tween overnight at 4° C. followed by three washing steps with PBS with 0.1% Tween. The membrane was incubated with B3-hFc (1 μg/mL) in blocking buffer for 2 h at RT in a shaker followed by three washing steps with PBS with 0.1% Tween. The membrane was incubated with HRP anti-human secondary antibody for 2 hours at RT in shaker followed by three washing steps with PBS with 0.1% Tween. The western blot was developed with western blotting detection reagent.

Experiment [2] addresses T1, Human YKL-40 also known as …. The experiment is described as follows: western blot. The procedure:
For the western blot 0.5 μg hYKL-40 or mYKL-40 were loaded onto a 4-20% SurePAGE, Bis-TRIS gel. The gel was run at 120V for 70 min and afterwards the samples were transferred to a nitrocellulose membrane using iBlot system. The membrane was incubated with 1 μg/ml primary antibody B10 (SEQ ID NO: 4)-hFc.
(In general: In western blotting, separated proteins are transferred to a membrane and probed.)

Experiment [3] has the same target. Briefly: ELISA, plate coated with 2.5 µg/ml hYKL-40. The procedure:
A 96-well ELISA plate were coated with 2.5 μg/ml hYKL-40 or 2.5 μg/ml calmodulin as control. 0.25 μg/ml (8), […] (7), 1 μg/ml (6), 2.5 μg/ml (5), 6.25 μg/ml (4), 12.5 μg/ml (3), 15 μg/ml (2) and 20 μg/ml (1) of the antibodies B3 (SEQ ID NO: 3)-mFc or B10 (SEQ ID NO: 4)-mFc were added.
A general note: An ELISA detects its analyte on a solid surface through an enzyme-linked reagent.

The target is the same in experiment [4]. Briefly: phage ELISA.
Experiment [5] shares this target. The experiment is described as follows: ELISA.
Experiment [6] deals with T2, Murine YKL-40 (mouse, UniProt Q61362 30-389).
T2 construct: Purchased (Catalogue #2649-CH); also called mYKL-40; mouse YKL-40
T2 sequence (Q61362 30-389 limits assumed): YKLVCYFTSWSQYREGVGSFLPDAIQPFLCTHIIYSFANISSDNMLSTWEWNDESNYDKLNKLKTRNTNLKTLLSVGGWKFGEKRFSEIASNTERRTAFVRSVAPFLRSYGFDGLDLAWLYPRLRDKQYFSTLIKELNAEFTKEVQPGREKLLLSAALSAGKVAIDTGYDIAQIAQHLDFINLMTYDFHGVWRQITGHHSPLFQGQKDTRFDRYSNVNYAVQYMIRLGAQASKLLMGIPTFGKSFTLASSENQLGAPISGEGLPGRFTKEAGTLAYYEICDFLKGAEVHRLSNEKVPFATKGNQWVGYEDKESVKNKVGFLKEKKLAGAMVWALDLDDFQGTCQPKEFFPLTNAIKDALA
Briefly: ELISA.

T1 sequence (P36222 22-383 limits assumed): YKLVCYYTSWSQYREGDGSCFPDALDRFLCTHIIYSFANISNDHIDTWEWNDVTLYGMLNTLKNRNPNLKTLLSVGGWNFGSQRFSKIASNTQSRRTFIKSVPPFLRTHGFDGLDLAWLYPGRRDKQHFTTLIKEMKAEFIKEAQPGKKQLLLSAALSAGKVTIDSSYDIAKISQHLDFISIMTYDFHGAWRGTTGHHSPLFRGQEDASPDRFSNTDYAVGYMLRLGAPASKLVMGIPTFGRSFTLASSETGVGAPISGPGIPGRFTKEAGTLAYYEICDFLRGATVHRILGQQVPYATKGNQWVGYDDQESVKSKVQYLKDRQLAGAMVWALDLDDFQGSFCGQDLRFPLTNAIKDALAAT

B1: B3 (SEQ ID NO: 3) fused to a human Fc (hFc) (Fc fusion)
chain: MAEVQLLESGGGLVQPGGSLRLSCAASGFRDSDEDMGWVRQAPGKGLEWVSSISAPGGSTYYADSVKGRFTISRDNSKNTLYLQMNSLRAEDTAVYYCASHYNYGHWFDYWGQGTLVTVSSAAVECPPCPAPPVAGPSVFLFPPKPKDTLMISRTPEVTCVVVDVSHEDPEVQFNWYVDGMEVHNAKTKPREEQFNSTFRVVSVLTVVHQDWLNGKEYKCKVSNKGLPAPIEKTISKTKGQPREPQVYTLPPSREEMTKNQVSLTCLVKGFYPSDIAVEWESNGQPENNYKTTPPMLDSDGSFFLYSKLTVDKSRWQQGNVFSCSVMHEALHNHYTQKSLSLSPGK
notes: VH domain fused to human Fc; no linker stated; also called B3-hFc
Regarding B1, in experiment [1], the binding result is “binds”.

B2: B10 (SEQ ID NO: 4) fused to a human Fc (Fc fusion)
chain: MAEVQLLESGGGLVQPGGSLRLSCAASGFRDSDEDMGWVRQAPGKGLEWVSSISADSGSTYYADSVKGRFTISRDNSKNTLYLQMNSLRAEDTAVYYCASDYNYWYWFDYWGQGTLVTVSSAAVECPPCPAPPVAGPSVFLFPPKPKDTLMISRTPEVTCVVVDVSHEDPEVQFNWYVDGMEVHNAKTKPREEQFNSTFRVVSVLTVVHQDWLNGKEYKCKVSNKGLPAPIEKTISKTKGQPREPQVYTLPPSREEMTKNQVSLTCLVKGFYPSDIAVEWESNGQPENNYKTTPPMLDSDGSFFLYSKLTVDKSRWQQGNVFSCSVMHEALHNHYTQKSLSLSPGK
notes: VH domain fused to human Fc; no linker stated; also called B10-hFc
With B2, in experiment [2], the binding result is “binds”.

B3: B3 (SEQ ID NO: 3) fused to murine Fc (mFc) (Fc fusion)
chain: MAEVQLLESGGGLVQPGGSLRLSCAASGFRDSDEDMGWVRQAPGKGLEWVSSISAPGGSTYYADSVKGRFTISRDNSKNTLYLQMNSLRAEDTAVYYCASHYNYGHWFDYWGQGTLVTVSSAARSPPLKECPPCAAPDLLGGPSVFIFPPKIKDVLMISLSPMVTCVVVDVSEDDPDVQISWFVNNVEVHTAQTQTHREDYNSTLRVVSALPIQHQDWMSGKEFKCKVNNRALPSPIEKTISKPRGPVRAPQVYVLPPPAEEMTKKEFSLTCMITGFLPAEIAVDWTSNGRTEQNYKNTATVLDSDGSYFMYSKLRVQKSTWERGSLFACSVVHEGLHNHLTTKTISRSLGK
notes: VH domain fused to murine Fc; no linker stated; also called B3-mFc; B3 mouse
For the molecule B3, the binding result in experiment [3] is on record as “binds”.

B4: B10 (SEQ ID NO: 4) fused to mFc (Fc fusion)
chain: MAEVQLLESGGGLVQPGGSLRLSCAASGFRDSDEDMGWVRQAPGKGLEWVSSISADSGSTYYADSVKGRFTISRDNSKNTLYLQMNSLRAEDTAVYYCASDYNYWYWFDYWGQGTLVTVSSAARSPPLKECPPCAAPDLLGGPSVFIFPPKIKDVLMISLSPMVTCVVVDVSEDDPDVQISWFVNNVEVHTAQTQTHREDYNSTLRVVSALPIQHQDWMSGKEFKCKVNNRALPSPIEKTISKPRGPVRAPQVYVLPPPAEEMTKKEFSLTCMITGFLPAEIAVDWTSNGRTEQNYKNTATVLDSDGSYFMYSKLRVQKSTWERGSLFACSVVHEGLHNHLTTKTISRSLGK
notes: VH domain fused to murine Fc; no linker stated; also called B10-mFc; B10 mouse
B4: in experiment [3], the binding result is reported as “binds”.

B5: B3 predator (phage antibody clone B3) (antibody, V domains shown)
VH: EVQLLESGGGLVQPGGSLRLSCAASGFRDSDEDMGWVRQAPGKGLEWVSSISAPGGSTYYADSVKGRFTISRDNSKNTLYLQMNSLRAEDTAVYYCASHYNYGHWFDYWGQGTLVTVSS
Take B5: the binding result in experiment [4] is “binds”.

B6: B10 predator (phage antibody clone B10) (antibody, V domains shown)
VH: EVQLLESGGGLVQPGGSLRLSCAASGFRDSDEDMGWVRQAPGKGLEWVSSISADSGSTYYADSVKGRFTISRDNSKNTLYLQMNSLRAEDTAVYYCASDYNYWYWFDYWGQGTLVTVSS
With B6, the binding result in experiment [4] is “binds”.

B7: H7 antibody comprising a VL of SEQ ID NO: 14 and a VH of SEQ ID NO: 15 fused to human Fc regions (antibody, human IgG1, kappa, V domains shown)
VH: EVQLQQSGAELVKPGASVKLSCTASGFNIKDTYMHWVKQRPEQGLEWIGRIDPANGNTIYASKFQGKATITRDTSSNTAYMQLSSLTSGDTAVYYCTRGVYYYGGSFYAMDYWGQGTSVTVSS
VL: DIQMTQSPASLSASVGETVTITCGASENIYGALNWYQRKQGKSPQLLIYGATTLADGMSSRFSGSGSGRQYSLKISSLHPDDVATYYCQNVLTTPWTFGGGTKLEIKT
notes: Chimeric mouse/human antibody; also called H7-hFc
For B7, the binding result in experiment [5] and in experiment [6] was “binds” in each case.
